Usually Kd stands for the constant that tells how readily two partners part at equilibrium. Read a high Kd as weaker binding. A word on the koff: it is the rate constant with which the complex falls apart. Lower therefore signals a long-lived complex. As a reminder, the kon is a measure of how fast the partners come together. Higher therefore signals fast association.

Assay [1] concerns the target human IgE (human). Description: SPR Biacore T200, 37 C; ratio of KD, pH dependency. For orientation: Surface plasmon resonance follows binding to a sensor surface in real time, without labels.
The target of assay [2] is human IgE (human). Briefly: SPR Biacore T200, 37 C; pH 5.8, […] Ca.
The target in assay [3] is human IgE (human). Description: SPR Biacore T200, 37 C; pH 7.4, […] Ca.
The target of assay [4] is human IgE (human). Briefly: SPR Biacore T200, 37 C; pH 5.8, 3 microM Ca.
The target of assay [5] is human IgE (human). Description: SPR Biacore T200, 37 C; ratio of KD, pH/Ca dependency.

Sequence of human IgE (human) (heavy, as listed by the source, chain 1 of 2, other chains not shown): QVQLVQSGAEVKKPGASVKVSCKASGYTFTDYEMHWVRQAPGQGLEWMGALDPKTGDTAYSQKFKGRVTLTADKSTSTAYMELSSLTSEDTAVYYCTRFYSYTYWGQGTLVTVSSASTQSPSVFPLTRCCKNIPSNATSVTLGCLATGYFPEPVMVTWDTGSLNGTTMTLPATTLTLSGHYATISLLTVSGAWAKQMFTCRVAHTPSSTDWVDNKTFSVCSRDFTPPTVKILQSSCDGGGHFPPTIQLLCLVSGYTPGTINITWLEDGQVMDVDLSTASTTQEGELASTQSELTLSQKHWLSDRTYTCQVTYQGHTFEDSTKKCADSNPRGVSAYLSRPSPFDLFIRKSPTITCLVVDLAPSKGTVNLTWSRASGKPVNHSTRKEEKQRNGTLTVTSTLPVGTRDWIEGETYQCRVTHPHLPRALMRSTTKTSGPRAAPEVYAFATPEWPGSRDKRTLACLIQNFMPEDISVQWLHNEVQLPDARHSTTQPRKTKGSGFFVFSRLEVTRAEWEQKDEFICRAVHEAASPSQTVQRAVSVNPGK

For “Xolair (omalizumab; Novartis) (antibody)”, the KD (pH 5.8, 1.2 mM Ca)/KD (pH 7.4, 1.2 mM Ca) with human IgE (human) [1] was 2.3. Moreover, the Kd was determined as 9.9 nM in the assay with human IgE (human) [2], 4.4 nM with human IgE (human) [3] and 13 nM with human IgE (human) [4]. Moreover, the koff in the assay with human IgE (human) [2] came to 0.024 s⁻¹; in the assay with human IgE (human) [3] it was 0.011 s⁻¹; with human IgE (human) [4] it was 0.017 s⁻¹. In addition, the kon in the assay with human IgE (human) [2] was 2.4e+06 M⁻¹ s⁻¹; with human IgE (human) [3] it was 2.5e+06 M⁻¹ s⁻¹; with human IgE (human) [4], 1.4e+06 M⁻¹ s⁻¹. Moreover, the KD (pH 5.8, 3 microM Ca)/KD (pH 7.4, 1.2 mM Ca) in the assay with human IgE (human) [5] came to 2.9.

For the origin of these results see US20140363428A1.
